Source: patent US20160129078A1, “Rhomboid Proteins and Uses Thereof” (Queen's University at Kingston, priority 2014, published 2016)

Key:
Pseudomonas aeruginosa = test: Impairment of lipase secretion and growth on minimal media-olive oil plates; format: cell-based; details: for growth on minimal media-olive oil agar plates: 10 ug protein, with or without 5% DMSO, olive oil as only carbon source
Description: Experiments were thus conducted to assess the ability of At1g74130 proteins or variants to impair the protein secretion process of Pseudomonas aeruginosa, a gram-negative bacterium known to be pathogenic and producers of biofilms. Any impact on the protein secretion mechanism may alter pathogenicity, growth, survival, biofilm production, and sensitivity to antimicrobial drugs. The design of the Pseudomonas assays was similar to that used for bacteria in the above examples, results, and figures. Treated Pseudomonas cells were plated onto minimal media supplemented with olive oil as the only external carbon source. The minimal media-olive oil plates consisted of the following: 50 mM MOPS, pH 7.5; 40 mM K2HPO4; 25 mM NaH2PO4; 7.5 mM (NH4)2SO4; 0.4 mM MgSO4; 0.5% (v/v) olive oil; 40 ug/ml neutral red; 20 ul trace elements (Mn, Co, Zn, Cu, and Mo); and 1.5% agar. Pseudomonas cells need to express and secrete lipases in order to break down the olive oil and allow the acquisition of carbon from the media. Cells that are impaired with respect to protein secretion will not be able to break down the olive oil for acquisition and permit subsequent growth.
Control assays were conducted on cells without added At1g74130 or variants (sensitizer variants) to determine the delivery system to use. Control assays were also conducted to determine if the 5% (v/v) DMSO delivery system used for E. coli exerted any effect. Pseudomonas cells were mock treated with Luria Broth (LB) media or 5% (v/v) DMSO for 45-90 minutes prior to plating on minimal media supplemented with olive oil as the sole external carbon source. Total volumes of 200 μl were used in these assays. The plates were allowed to grow overnight to assess the level of growth or colony formation.
In the experimental assays, the utility of At1g74130 or variants in the Pseudomonas was tested by adding 10 ug protein (At1g74130 or variants) to cells (600-800 cells) incubated for 45 minutes at 37° C., shaken, and followed by another 45 minute period at 37° C. […]

yeast = test: Sensitization of yeast to fungicidal agents AmB and Nys; format: cell-based, Saccharomyces cerevisiae; details: for yeast cell survival, variant added alone: 10 ug protein alone in elution buffer, no fungicide; for yeast survival, fungicidal agents together with variant protein: 10 ug protein with sub-lethal AmB and/or Nys
Protocol: Experiments were conducted to assess the ability of the Arabidopsis At1g74130 proteins or variants to sensitize yeast to the antifungal agents Amphotericin B (AmB) and Nystatin (Nys). Overall, these assays were conducted in a manner similar to that designed for bacteria (Example 9). In addition to the components mixed with the added proteins or variants, the antifungal AmB was also utilized as part of the delivery system. The AmB drug contains small quantities of the detergent deoxycholate, which may also assist in the delivery of proteins into the cell, as well as function as a pore forming agent itself. […] The effective co-delivery sub-lethal concentrations of the two antifungal agents or protein had little or no effect when provided individually. FIGS. 17 and 18 show results of the yeast sensitivity assays for AmB and Nys. […] In FIG. 17, the “Yeast Control” bars represent yeast cells given mock treatments with culture media (YPD) alone, YPD plus 1% AmB, YPD plus 0.5% Nys, and YPD plus 1% AmB and 0.5% Nys, respectively. The “BSA Control” bars represent another set of mock treatments with yeast cells. This set utilized the same set-up as the Yeast Control set but with added control bovine serum albumin proteins (BSA) (dissolved in the elution buffer, the same buffer used for the purification of the recombinant At1g74130 rhomboid proteins or variants). These assays represent another variation of negative controls for rhomboid protein. The “Elution Control” bars represent yeast cells mock treated using the same set-up as in the Yeast Control set but with added elution buffer alone. This variation of control assays was designed to assess for potential toxic impacts when combining elution buffer and the listed drugs, as well any effects originating from components of the elution buffer itself. The composition of the elution buffer is provided above in Example 5. With the exception of Nys, these treatments represent the first step and occur for 45 minutes before the second step when exposure to fungicides takes place. Within each set of bars, where applicable, the second 15-minute step treatment occurred with a sub-lethal dose of Nys. After a total of one hour, the treated yeast cells were plated on non-selective YPD agar plates. Plates were grown 2-3 days at 27-30° C. and assessed for surviving cell numbers (measuring cell death). Images were also taken to document cell and colony growth characteristics.
In the experimental assays, the sensitizing properties of At1g74130 or variants (sensitizing variants) were tested by adding 10 ug protein (At1g74130 or variants in elution buffer) to yeast cells (300-500 cells). To reiterate in all cases, the components were added to cultures and mixed for one hour, where Nys was added and incubated for the last 15 minutes of the treatment. Pre-treatment was designed to permit AmB and At1g74130 proteins to establish and work prior to adding Nys. After the one hour incubation, 500 cells were plated on non-selective YPD agar media and grown for 48 hours at 30′C.
The sub-lethal levels of fungicides to use in these assays were determined using dosage experiments. These assays were conducted on yeast cells without added rhomboid proteins or variants. The dosages of AmB tested ranged from 0 to 5% (v/v). […] Likewise, the Nys level was determined using a range of 0.5 to 2.5%. Yeast cells were treated for one hour with fungicides in a total volume of 400 μl YPD media before plating.
Since both the AmB buffer contained small quantities of detergent (deoxycholate being the main one), an experiment was done in which different amounts (1% and 10%) of deoxycholate were added to yeast cells to ascertain any effects. Adding deoxycholate had little effect on yeast.
This set of yeast assays was conducted in the same manner described above (Example 13) and employed the same controls and combinations. […]

bacteria = test: Sensitization of bacteria to tetracycline by exogenous rhomboid protein; format: cell-based, Escherichia coli; details: tetracycline 15 ug/ml
Protocol: Experiments were conducted to assess the ability and the utility of At1g74130 protein variants to sensitize bacteria to another antibiotic, tetracycline. In bacteria, tolerance or resistance to tetracycline is facilitated by a mechanism different from the ampicillin resistance assayed in Example 9. Unlike the breakdown of ampicillin outside the bacterial cells by secreted ampicilliase, tetracycline resistance in bacteria is based largely on the continual and effective pumping of tetracycline out of the cell by proteinaceous membrane pumps. To assess the utility of the At1g74130 for sensitizing bacteria to tetracycline, these bacterial assays were conducted in the same manner described in Example 9. The same controls and combinations were used. The final treatment level of tetracycline used in place of the ampicillin treatment was 15 ug/ml.
Experiments were conducted to assess the ability and the utility of a human rhomboid type or variant to sensitize bacteria to tetracycline. These bacterial assays were conducted in the same manner described above for the other rhomboid variants and in Example 9. The same controls and combinations were used. The At1g74130 L was the control for UBAC2 in this set of assays. The previously observed behaviours and responses were not observed for UBAC2 in this setting with the antibiotic tetracycline (FIG. 16).

B1: At1g74130 M: 7/8 M-form splice variant of Arabidopsis At1g74130 rhomboid protein (protein, listed as Arabidopsis thaliana)
chain: MHAIFCRRVAVGCSSPQLTKLVTKQASQSRHSLSHLLPFDLSSRFVPPYVVSRSARVHGFFAGKLGNTNLKLKFGNVMESRAGFFSSELPSHGFESGGFTGFQKRGWKSWINGANGVVFGLVIANAAVFTMWRVLGKDNMWMVKNFMLSRYSFMTGRIHTLITSGFSHVGATHIILNMMGLCYFGARIARSFGPRYLLKLYFAGALGGSVFFLSSHALSVISLKGQRVVPKDQLKVPIGKLGANGPVYAITLLDMLLYPKVTTYFGLMLRVPVFAGIYSLGLNIIKMLEVCMMGKTTIP
- growth on minimal media-olive oil agar plates (Pseudomonas aeruginosa): reduced
- lipase secretion (Pseudomonas aeruginosa; assay with elution buffer and variant): moderate impairment of lipase secretion
- yeast cell survival, variant added alone (yeast): no effect
- yeast survival, fungicidal agents together with variant protein (yeast): dramatically reduced yeast survival
- sensitization of bacteria to tetracycline (bacteria): increased the sensitivity

B2: At1g74130 S: 6/7 S-form splice variant of Arabidopsis At1g74130 rhomboid protein (protein, listed as Arabidopsis thaliana)
chain: MHAIFCRRVAVGCSSPQLTKLVTKQASQSRHSLSHLLPFDLSSRFVPPYVVSRSARVHGFFAGKLGNTNLKLKFGNVMESRAGFFSSELPSHGFESGGFTGFQKRGWKSWINGANGVVFGLVIANAAVFTMWRVLGKDNMWMVKNFMLSRYSFMTGRIHTLITSGFSHVGATHIILNMMGLCYFGARIARSFGPRYLLKLYFAGALGGSVFFLSSHALSVISLKGQRVVPKDQLKVPIGKLGANGPVYAITLLDMLLYPKVTTYFGLMLRVPVFAVRESIA
- growth on minimal media-olive oil agar plates (Pseudomonas aeruginosa): most potent impact
- yeast cell survival, variant added alone (yeast): no effect
- yeast survival, fungicidal agents together with variant protein (yeast): dramatically reduced yeast survival
- sensitization of bacteria to tetracycline (bacteria): no activity
